B1: NR2F2 (parent)
chain: VAHVESLQEKSQCALEEYVRSQYP

Variants of: B1
Test: protein stability index of a GFP-peptide fusion (GPS, HEK-293T) (PSI 1-6); higher = more stable
Details: c terminus: a fixed tail appended
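Further: lentivirally expressed fusions sorted by FACS into six bins by GFP to DsRed ratio, PSI derived from sequencing read proportions per bin multiplied by bin number.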

Variant	protein stability index
VAHVESMQEKSQCALEEYVRSQYP [L7M]	3.95
VAHVESYQEKSQCALEEYVRSQYP [L7Y]	3.45
VAHVESEQEKSQCALEEYVRSQYP [L7E]	4.77
VAHVESWQEKSQCALEEYVRSQYP [L7W]	3.03
VAHVESTQEKSQCALEEYVRSQYP [L7T]	4.13
VAHVESKQEKSQCALEEYVRSQYP [L7K]	3.98
VAHVESPQEKSQCALEEYVRSQYP [L7P]	4.43
VAHVESHQEKSQCALEEYVRSQYP [L7H]	3.71
VAHVESDQEKSQCALEEYVRSQYP [L7D]	4.29
VAHVESFQEKSQCALEEYVRSQYP [L7F]	3.27
VAYVESLQEKSQCALEEYVRSQYP [H3Y]	2.77
VAEVESLQEKSQCALEEYVRSQYP [H3E]	4.95
VAWVESLQEKSQCALEEYVRSQYP [H3W]	2.26
VAFVESLQEKSQCALEEYVRSQYP [H3F]	2.63
VAMVESLQEKSQCALEEYVRSQYP [H3M]	3.36
VAKVESLQEKSQCALEEYVRSQYP [H3K]	3.43
VAGVESLQEKSQCALEEYVRSQYP [H3G]	3.75
VAAVESLQEKSQCALEEYVRSQYP [H3A]	3.48
VAVVESLQEKSQCALEEYVRSQYP [H3V]	2.83
VACVESLQEKSQCALEEYVRSQYP [H3C]	3.42
VADVESLQEKSQCALEEYVRSQYP [H3D]	4.6
VAQVESLQEKSQCALEEYVRSQYP [H3Q]	3.81
VATVESLQEKSQCALEEYVRSQYP [H3T]	3.86
VARVESLQEKSQCALEEYVRSQYP [H3R]	3.45

Variant	protein stability index
VAIVESLQEKSQCALEEYVRSQYP [H3I]	2.55
VASVESLQEKSQCALEEYVRSQYP [H3S]	3.68
VAPVESLQEKSQCALEEYVRSQYP [H3P]	4.09
VANVESLQEKSQCALEEYVRSQYP [H3N]	3.77
VALVESLQEKSQCALEEYVRSQYP [H3L]	2.38
VAHVEFLQEKSQCALEEYVRSQYP [S6F]	2.71
VAHVETLQEKSQCALEEYVRSQYP [S6T]	3.55
VAHVEVLQEKSQCALEEYVRSQYP [S6V]	3.33
VAHVEKLQEKSQCALEEYVRSQYP [S6K]	4.12
VAHVECLQEKSQCALEEYVRSQYP [S6C]	3.48
VAHVEMLQEKSQCALEEYVRSQYP [S6M]	3.07
VAHVERLQEKSQCALEEYVRSQYP [S6R]	3.67
VAHVELLQEKSQCALEEYVRSQYP [S6L]	3.22
VAHVEPLQEKSQCALEEYVRSQYP [S6P]	2.94
VAHVEELQEKSQCALEEYVRSQYP [S6E]	4.33
VAHVEWLQEKSQCALEEYVRSQYP [S6W]	2.77
VAHVEYLQEKSQCALEEYVRSQYP [S6Y]	2.98
VAHVEILQEKSQCALEEYVRSQYP [S6I]	3.07
VAHVEALQEKSQCALEEYVRSQYP [S6A]	4.04
VAHVENLQEKSQCALEEYVRSQYP [S6N]	3.53
VAHVEHLQEKSQCALEEYVRSQYP [S6H]	3.26
VAHVEDLQEKSQCALEEYVRSQYP [S6D]	3.86
VAHVEGLQEKSQCALEEYVRSQYP [S6G]	3.24

Source: the supplement of paper PMC10567573
